The series can be described thus: yeast display, Sf9 membrane polyspecificity reagent, FACS + sequencing; frameworks hold sequencing errors. The procedure, abridged:
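Genes from sorted yeast were amplified by colony PCR, read by MiSeq 2 × 250 sequencing and filtered on CDR length. These cells carried a synthetic nanobody library in Saccharomyces cerevisiae BJ5465 and were sorted by FACS into low and high (top ~1%) gates on anti-HA and streptavidin fluorescence. Polyreactivity is labelled according to the gate of origin.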
As to “QVQLVESGGGLVQAGGSLRLSCAASGSIFPGYAMGWYRQAPGKERELVATITWSGGSTYYADSVKGRFTISRDKAKNTVYLQMNSLKPEDTAVYYCNADSNWYYQWNYYGLYDYWGQGTQVTVSS”, the “polyreactivity (PSR sort gate)” value was “low polyreactivity”.
The result for “QVQLVESGGGLVQAGGSLRLSCAASGSIFPHNAMGWYRQAPGKERVLVASITSRGGITYYADSVKGRFTISRDNAKNTVYLQMNSLKPEDTAVYYCAADLYIYPYDYWGQGTQVTVSS” reads “low polyreactivity”.
As for “QVQLVESGGGLVQAGGSLRLSCAASGSIFPHNAMGWYRTAPGKDRELVAAISWRDVISYYADSVKGRFTISRDNAKNTVYLQMNSLKPEDTAVYYCAAELRVYGVDYEYWGQGTQVTVSS”, the “polyreactivity (PSR sort gate)” value is given as “high polyreactivity”.
The same measure for “QVQLVESGGGLVQAGGSLRLSCAASGSIFPHNTMGWYRQAPGNERELVAAISRSGGSTYYADSVKGRFTISRDNAKNTVYLQMNSLKPEDTAVYYCARDSYDVGHQVVSDERLYDYWGQGTQVTVSS”: “low polyreactivity”.
As for “QVQLVESGGGLVQAGGSLRLSCAASGSIFPHYAMGWYRQAPGKERELVAAISSGTSTNYADSVKGRFTISRDNAKNTVYLQMNSLKPEDTAVYYCAADIGVYGERREEEFDYWGQGTQVTVSS”, the “polyreactivity (PSR sort gate)” value is “low polyreactivity”.
The same measure for “QVQLVESGGGLVQAGGSLRLSCAASGSIFPHYAMGWYRQAPGKERELVATIRSRSGSTYYADSVKGRFTISRDNAKNTVYLQMNSLKPEDTAVYYCAKDNSLFQRDYWGQGTQVTVSS”: “low polyreactivity”.
Regarding “QVQLVESGGGLVQAGGSLRLSCAASGSIFPINARGWYREAPGKERELVAVITSGGGGTYYADSVKGRFTISRDNAKNTVYLQMNCLTPEDTAVYYCAKRLSRKWQKFGYWGQGTQVTVSS”, the “polyreactivity (PSR sort gate)” value was “low polyreactivity”.
Take “QVQLVESGGGLVQAGGSLRLSCAASGSIFPIYAMGWYRPAPGKERELVAAINRSGGSTYYADSVKGRFTISRDNAKNTVYLQMNSLKPEDTAVYYCNADYGYHNQLFWGYYGWSSDHWGQGTQVTVSS”: the “polyreactivity (PSR sort gate)” value was “low polyreactivity”.
Turning to “QVQLVESGGGLVQAGGSLRLSCAASGSIFPKNAMGWSRQAPGKVREFVATITKRGGRTYYADSVKGRFTISRDNAKNTVYLQMNSQKPEEPAVYYCARDQGKLVVPYDYWGQGTQLTVSS”, the “polyreactivity (PSR sort gate)” value is “high polyreactivity”.
As for “QVQLVESGGGLVQAGGSLRLSCAASGSIFPKNAMGWYRQAPGKERELVAGITSRTGRTYYADSVKGRFTISRDKAKNTVYLQMNSLKPEDTAVYYCAARIGGGPVKYDYWGQGTQVTVSS”, the “polyreactivity (PSR sort gate)” value is “high polyreactivity”.
The result for “QVQLVESGGGLVQAGGSLRLSCAASGSIFPKNAMGWYRQATGKERELVARISGSGGSTYYADSVKGRFTISRDNAKNTVYLQMNSLKPEDTAVYYCAKDQSKIYSSWSGYYYWGQGTQVTVSS” reads “low polyreactivity”.
The same measure for “QVQLVESGGGLVQAGGSLRLSCAASGSIFPKYAKGWYRQAPGKEREMVAAINWRGVSTYYADSVKGRFTISRDNAKNTVYLQMNSLKPEDTAVYYCAADLLHTRQFGYWGQGTQVTVSS”: “low polyreactivity”.
The result for “QVQLVESGGGLVQAGGSLRLSCAASGSIFPKYAMGWDRQAPGKERELVATITWSGSSTYYADSVKGRFTISRDNAKNTVYLQMNSLKPEDTAVYYCAATGWSSFYYRFDYWGQGTQVTVSS” reads “low polyreactivity”; that for “QVQLVESGGGLVQAGGSLRLSCAASGSIFPLNAMGWYRQAPGKERELVASISTGSSTYYADSVKGRFTISRDNAKNTVYLQMNSLKPEDTAVYYCAVDRVLFSDYYRGYEYNYWGQGTQVTVSS”, “low polyreactivity”; that for “QVQLVESGGGLVQAGGSLRLSCAASGSIFPLNDMGWYRQAPGKERELVAAITIGGSTYYADSVKGRFTISRDNAKNTVYLQMNSLKPEDTAVYYCAKVGELSYRYDYWGQGTQVTVSS”, “high polyreactivity”.
Turning to “QVQLVESGGGLVQAGGSLRLSCAASGSIFPLYAMGWYRQAPGKERELVADITVSGGSTYYADSVKGRFTISRDNAKNTVYLQMNSLKPEDTAVYYCNADDRSPFPDYWWYPYDYDYWGQGTQVTVSS”, the “polyreactivity (PSR sort gate)” value is recorded as “low polyreactivity”.
The same measure for “QVQLVESGGGLVQAGGSLRLSCAASGSIFPLYDMGWYRQAPGKERELVAGITGSGGSSYYADSVKGRFTISRDNAKNTVYLQMNSLKPEDTAVYYCAADYSLYGWWFRNDYWGQGTQVTVSS”: “low polyreactivity”; for “QVQLVESGGGLVQAGGSLRLSCAASGSIFPNGMGSYRQAPGKERELVATITSGGSTYYADSVKGRFTISRDNAKNTVYLQMNSLKPEETAVYYCADTVYGGYSGSGCNYWGKGTQVTVSS”: “low polyreactivity”.
The result for “QVQLVESGGGLVQAGGSLRLSCAASGSIFPPNAMGWYRQAPGKERELVAGISQSGGSTYYADSVKGRFTISRDNAKNTVYLQMNSLKPEDTAVYYCARSFYSGRRYYYWGQGTQVTVSS” reads “high polyreactivity”; that for “QVQLVESGGGLVQAGGSLRLSCAASGSIFPPYAMGWYRQAPGKERELVATITIRGGSTYYADSVKGRFTISRDNAKNTVYLQMNSLKREDTAVYYCAADYTKYYRRYYYWGQGTQVTVSS”, “high polyreactivity”.
The result for “QVQLVESGGGLVQAGGSLRLSCAASGSIFPPYVMGWYRPAPGKERELVAAINYIGDSTYADSVKGRFTISRDNAKNTVYLQINSLKPEDTAVYYCAAELWSGGVYSGFEEYWGQGTQVTVSS” reads “high polyreactivity”; that for “QVQLVESGGGLVQAGGSLRLSCAASGSIFPQNAMGWYRQAPGKERELVASITSRGGITNYADSVKGRFTISRDNAKNTVYLQMNSLKPEDSAVYYCAADLYIYPYDYWGQGTQVTVSS”, “low polyreactivity”.
On to “QVQLVESGGGLVQAGGSLRLSCAASGSIFPQYAMGWYRQAPGTERELVAAISSSGGRTYYADSVKGRFTISRDNAKYTVYLQMNSLKPEDTAVYYCITRWRSRYGYGDQSEDYWGQGTQVTVSS”, for which the “polyreactivity (PSR sort gate)” value is reported as “high polyreactivity”.
The result for “QVQLVESGGGLVQAGGSLRLSCAASGSIFPRNAMGWYRQAPGKERELVAAITTTGGITHYADSVKGRFTISRDNAKNTVYLQMNSLKPEDTAVYYCAASNEVPWRFPDDYWGQGTQVTVSA” reads “low polyreactivity”; that for “QVQLVESGGGLVQAGGSLRLSCAASGSIFPRNTMGWYRQAPGKERELVAAMSSGASTYYADSVKGRFTISRDNAKNTVYLQMNSLKPEDTAVYYCAKRYQDTSPKDGENEYWGQGTQVTVSS”, “low polyreactivity”.
The result for “QVQLVESGGGLVQAGGSLRLSCAASGSIFPRYAMGWYRQAPGKERELVAAINSGGSTNYADSVKGRFTISRDNAKNTVYLQMHSLKPEDTAVYYCNAVFISYSYRRGPTLYVYWGQGTQVTVSS” reads “high polyreactivity”; that for “QVQLVESGGGLVQAGGSLRLSCAASGSIFPSNAMGWYRQAPGKERELVAAINRDGITNYADSVKGRFTISRDNAKNTVYLQMNSLKPEDTAVYYCAAEFAWQWWEYGYWGQGSQVTVSS”, “low polyreactivity”.
The result for “QVQLVESGGGLVQAGGSLRLSCAASGSIFPSYAMGWYRQAPGKDRELVATLGRGGTTNYADSVKGRFTLSRDNAKNTVYIQMNSLKPEDTAVYYCNAERIWRYKDGYDYWGQGTQVTVSS” reads “high polyreactivity”; that for “QVQLVESGGGLVQAGGSLRLSCAASGSIFPSYARGWDRKAPGKERELVAAISSSGGSTYYADSVKGRFTISRDNAKNTVYLQMNSLKPEDTAVYYCATRYRRWSTVVQDDYWGQGTQVTVSS”, “low polyreactivity”.
“QVQLVESGGGLVQAGGSLRLSCAASGSIFPSYSMGWYRQAPGKERELVAVISVSGGRTYYADSVKGRFTISRDNAKNTVYLQMKSLKPEDTAVYYCAKDRPQEYDYWGQGTQVTVSS”: the “polyreactivity (PSR sort gate)” value is reported as “low polyreactivity”.
